Numbering of substitutions follows the chain as printed. Like-named read-outs stand apart in the source and are kept apart here.
T1: HLA-DQ6.3 on Ba/F3 cells (human, UniProt P01920 33-230, limits assumed)
T1 construct: whole, on cells; also called Ba/F3-HLA-DQ6.3
T1 MHC II alpha: not shown
T1 MHC II beta: not shown

T2: HLA-DQ5.1 on Ba/F3 cells (human, limits assumed)
T2 construct: whole, on cells; also called Ba/F3-HLA-DQ5.1
T2 MHC II alpha: not shown
T2 MHC II beta: not shown

T3: HLA-DR on Ba/F3 cells (human, UniProt P01903 26-216; P79483 30-227, limits assumed)
T3 construct: whole, on cells; also called Ba/F3-HLA-DR
T3 MHC II alpha: not shown
T3 MHC II beta: not shown

T4: HLA-DQ8 on Ba/F3 cells (human, UniProt P01909 24-216; P01920 33-230, limits assumed)
T4 construct: whole, on cells; also called Ba/F3-HLA-DQ8
T4 MHC II alpha: not shown
T4 MHC II beta: not shown

T5: HLA-DQ2.2 on Ba/F3 cells (human, UniProt P01909 24-216, limits assumed)
T5 construct: whole, on cells; also called Ba/F3-HLA-DQ2.2
T5 MHC II alpha: not shown
T5 MHC II beta: not shown

T6: HLA-DQ7.3 on Ba/F3 cells (human, UniProt P01909 24-216; P01920 33-230, limits assumed)
T6 construct: whole, on cells; also called Ba/F3-HLA-DQ7.3
T6 MHC II alpha: not shown
T6 MHC II beta: not shown

B1: DQN0344H1013/L0620//DQN0385H1352/L0681-F6 (bispecific antibody)
heavy 1: QVQLVESGGGVVQPGRSLRLSCAASGFTFSSAYWMVWVRQAPGQGLEWMGAVYGGSDTTYYAKWTEGRFTISRDTSKNTLYLQMNSLRAEDTAVYYCAREPLNYYYYGELNVWGQGTLVTVSSASTKGPSVFPLAPSSKSTSGGTAALGCLVKDYFPEPVTVSWNSGALTSGVHTFPAVLKSSGLYSLSSVVTVPSSSLGTQTYICNVNHKPSNTKVDKRVEPKSCDKTHTCPPCPAPELRRGPSVFLFPPKPKDTLMISRTPEVTCVVVDVSHEDPEVKFNWYVDGVEVHNAKTKPREEQYNSTYRVVSVLTVLHQDWLNGKEYKCKVSNKALPAPIEKTISKAKGQPREPQVYTLPPSREEMTKNQVSLTCLVKGFYPSDIAVEWESNGQPENNYKTTPPYLDSDGSFFLYSKLTVDKSRWQEGNVFSCSVLHEALHAHYTREELSLSP
light 1: DIQMTQSPSSLSASVGDRVTITCQATENIYSGLAWYQQKPGKAPKLLIYYVSTLAYGIPARFSGSGSGTDFTLTISSLEPEDFAVYYCQTYEDVSAVTFGQGTKVEIKRTVAAPSVFIFPPSDEQLKSGTAEVVCLLNNFYPREAKVQWKVDNALQSGNSEESVTEQDSKDSTYSLSSTLTLSKADYEKHKVYACEVTHQGLSSPVTKSFNRGEC
heavy 2: QVQLVESGGGVVQPGRSLRLSCAASGFEFSEWYFMSWVRQAPGKGLEWVASIDTGSGSIDYAEWVEGRFTISRDNSKNTLYLQMNSLRAEDTAVYYCARDIGIDYNFWGPGTLVTVSSASTKGPSVFPLAPSSKSTSGGTAALGCLVEDYFPEPVTVSWNSGALTSGVHTFPAVLESSGLYSLSSVVTVPSSSLGTKTYICNVNHKPSNTKVDKRVEPKSCDKTHTCPPCPAPELRRGPSVFLFPPKPKDTLMISRTPEVTCVVVDVSHEDPEVKFNWYVDGVEVHNAKTKPREEQYNSTYRVVSVLTVLHQDWLNGKEYKCKVSNKALPAPIEKTISKAKGQPREPQVYTLPPSRKEMTKNQVSLTCLVKGFYPSDIAVEWESNGQPENNYKTTPPYLDSDGSFFLYSKLTVDKSRWQQGNVFSCSVLHEALHAHYTRKELSLSP
light 2: DIQMTQSPSSLSASVGDRVTITCQTTQSISSYLNWYQQKPGQPPKLLIYYASTKAEGIPARFSGSGLGTDFTLTISSLEPEDFAVYYCHYGISKVSFGQGTKVEIKRTVAAPSVFIFPPSDEQLKSGTAKVVCLLNNFYPREAKVQWKVDNALQSGNSKESVTEQDSKDSTYSLSSTLTLSKADYEKHKVYACEVTHQGLSSPVTKSFNRGEC
B2: DQN0344H1013/L0620//DQN0385H1521/L0605-F6 (bispecific antibody)
heavy 1: B1 heavy 1
light 1: B1 light 1
heavy 2: B1 heavy 2 with E28T, S30E, E31S
light 2: B1 light 2 with L67S
B3: DQN0344H1013/L0620//DQN0385H1353/L0681-F6 (bispecific antibody)
heavy 1: B1 heavy 1
light 1: B1 light 1
heavy 2: B1 heavy 2 with E28T, S30A
light 2: B1 light 2

Tests used:
[1] = biological target: T1, HLA-DQ6.3 on Ba/F3 cells; test: FACS, Ba/F3 cells; raw MFI
[2] = biological target: T7, HLA-DP on Ba/F3 cells (human, UniProt P20036 29-222; P04440 30-225, limits assumed); test: FACS, Ba/F3 cells; raw MFI
T7 construct: whole, on cells; also called Ba/F3-HLA-DP

[3] = biological target: T2, HLA-DQ5.1 on Ba/F3 cells; test: FACS, Ba/F3 cells; raw MFI
[4] = biological target: T3, HLA-DR on Ba/F3 cells; test: FACS, Ba/F3 cells; raw MFI
[5] = biological target: HLA-DQ2.5 on IHW09023 cells loaded with gamma 3 gliadin peptide (human; wheat); test: cell-based or functional assay
[6] = biological target: HLA-DQ2.5 on IHW09023 cells loaded with 33 mer gliadin peptide (human; wheat); test: cell-based or functional assay
[7] = biological target: HLA-DQ2.5 on IHW09023 cells loaded with gamma 2 gliadin peptide (human; wheat); test: cell-based or functional assay
[8] = biological target: HLA-DQ2.5 on IHW09023 cells loaded with gamma 4d gliadin peptide (human; wheat); test: cell-based or functional assay
[9] = biological target: HLA-DQ2.5 on IHW09023 cells loaded with gamma 1 gliadin peptide (human; wheat); test: cell-based or functional assay
[10] = biological target: HLA-DQ2.5 on IHW09023 cells loaded with gamma 4a gliadin peptide (human; wheat); test: cell-based or functional assay
[11] = biological target: HLA-DQ2.5 on IHW09023 cells loaded with BC hordein peptide (human; barley); test: cell-based or functional assay
[12] = biological target: HLA-DQ2.5 on IHW09023 cells loaded with omega1/2 gliadin peptide (human; wheat); test: cell-based or functional assay
[13] = biological target: T4, HLA-DQ8 on Ba/F3 cells; test: FACS, Ba/F3 cells; %MFI with IC17dK 0 and DQN0139bb 100
[14] = biological target: T8, HLA-DQ7.5 on Ba/F3 cells (human, UniProt P01909 24-216; P01920 33-230, limits assumed); test: as above
T8 construct: whole, on cells; also called Ba/F3-HLA-DQ7.5

[15] = biological target: T5, HLA-DQ2.2 on Ba/F3 cells; test: as above
[16] = biological target: T9, HLA-DQ2.5 on Ba/F3 cells (human, UniProt P01909 24-216, limits assumed); test: as above
T9 construct: whole, on cells; MHC class II without a fused peptide; also called Ba/F3-HLA-DQ2.5

[17] = biological target: T6, HLA-DQ7.3 on Ba/F3 cells; test: as above
[18] = biological target: T4, HLA-DQ8 on Ba/F3 cells; test: as above
[19] = biological target: T8, HLA-DQ7.5 on Ba/F3 cells; test: as above; remark: listed apart in the source
[20] = biological target: T5, HLA-DQ2.2 on Ba/F3 cells; test: as above
[21] = biological target: T9, HLA-DQ2.5 on Ba/F3 cells; test: as above; remark: listed apart in the source
[22] = biological target: T6, HLA-DQ7.3 on Ba/F3 cells; test: as above
[23] = biological target: T4, HLA-DQ8 on Ba/F3 cells; test: as above
[24] = biological target: T8, HLA-DQ7.5 on Ba/F3 cells; test: as above; remark: listed apart in the source
[25] = biological target: T5, HLA-DQ2.2 on Ba/F3 cells; test: as above
[26] = biological target: T9, HLA-DQ2.5 on Ba/F3 cells; test: as above; remark: listed apart in the source
[27] = biological target: T6, HLA-DQ7.3 on Ba/F3 cells; test: as above

T7 sequence (P20036 29-222 limits assumed, chain 1 of 4, other chains not shown): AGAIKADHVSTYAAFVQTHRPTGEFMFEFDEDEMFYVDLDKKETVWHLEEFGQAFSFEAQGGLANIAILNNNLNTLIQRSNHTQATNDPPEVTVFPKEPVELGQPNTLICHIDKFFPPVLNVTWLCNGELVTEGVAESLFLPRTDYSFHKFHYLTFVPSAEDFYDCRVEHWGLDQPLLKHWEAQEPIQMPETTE
T7 sequence (P04440 30-225 limits assumed, chain 2 of 4, other chains not shown): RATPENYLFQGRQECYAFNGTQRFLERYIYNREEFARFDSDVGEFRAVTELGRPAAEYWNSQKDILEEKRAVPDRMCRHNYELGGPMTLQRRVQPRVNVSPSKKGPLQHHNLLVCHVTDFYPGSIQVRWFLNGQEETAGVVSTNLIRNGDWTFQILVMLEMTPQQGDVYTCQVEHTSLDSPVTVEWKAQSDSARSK

Binder | binding result [1] | binding result [2] | binding result [3] | binding result [4] | IC50, γ3 gliadin TCR, 100 µM γ3 gliadin [5] [ng/mL] | IC50, α1a gliadin TCR, 250 nM 33mer gliadin [6] [ng/mL] | IC50, α1b gliadin TCR, 250 nM 33mer gliadin [6] [ng/mL] | IC50, α2 gliadin TCR, 250 nM 33mer gliadin [6] [ng/mL] | IC50, γ2 gliadin TCR, 250 nM γ2 gliadin [7] [ng/mL] | IC50, γ4d gliadin TCR, 100 µM γ4d gliadin [8] [ng/mL] | IC50, γ1 gliadin TCR, 250 nM γ1 gliadin [9] [ng/mL] | IC50, γ4a gliadin TCR, 25 µM γ4a gliadin [10] [ng/mL] | IC50, BC hordein TCR, 250 nM BC hordein [11] [ng/mL] | IC50, ω1 gliadin TCR, 25 µM ω1/2 gliadin [12] [ng/mL] | IC50, ω2 gliadin TCR, 250 nM ω1/2 gliadin [12] [ng/mL] | further results
B1 | no binding (tested: 0.05 ug/mL) | no binding (tested: 0.05 ug/mL) | no binding (tested: 0.05 ug/mL) | no binding (tested: 0.05 ug/mL) | 3.15 | 0.26 | 1.13 | 0.38 | 279 | 3.15 | 1.71 | 1730 | 11.6 | 1.88 | 0.27 | binding result [13]: no binding (tested: 0.05 ug/mL); binding result [14]: no binding (tested: 0.05 ug/mL); binding result [15]: no binding (tested: 0.05 ug/mL); binding result [16]: no binding (tested: 0.05 ug/mL); binding result [17]: no binding (tested: 0.05 ug/mL)
B2 | no binding (tested: 0.05 ug/mL) | no binding (tested: 0.05 ug/mL) | no binding (tested: 0.05 ug/mL) | no binding (tested: 0.05 ug/mL) | 1.4 | 0.28 | 1.76 | 0.33 | 853 | 13 | 0.68 | 1350 | 8.98 | 1.91 | – | binding result [18]: no binding (tested: 0.05 ug/mL); binding result [19]: no binding (tested: 0.05 ug/mL); binding result [20]: no binding (tested: 0.05 ug/mL); binding result [21]: no binding (tested: 0.05 ug/mL); binding result [22]: no binding (tested: 0.05 ug/mL)
B3 | no binding (tested: 0.05 ug/mL) | no binding (tested: 0.05 ug/mL) | no binding (tested: 0.05 ug/mL) | no binding (tested: 0.05 ug/mL) | 2.29 | 0.29 | 1.13 | 0.34 | 100 | 2.06 | 0.56 | 1250 | 8.78 | 1.17 | 0.17 | binding result [23]: no binding (tested: 0.05 ug/mL); binding result [24]: no binding (tested: 0.05 ug/mL); binding result [25]: no binding (tested: 0.05 ug/mL); binding result [26]: no binding (tested: 0.05 ug/mL); binding result [27]: no binding (tested: 0.05 ug/mL)

Reference: US20220089743A1 (Chugai, published 2022)
